# Patent US20040096942A1
# Columns and labels:
# [1] = molecular target: GAL4DmEcR-DEF (yeast; fruit fly Drosophila melanogaster); assay: cell-based or functional assay
# [2] = molecular target: GAL4CfEcR-DEF (yeast; spruce budworm Choristoneura fumiferana); assay: cell-based or functional assay
substance,measurement,setting,value
VP16MmRXRα(1-7)-LmUSP(8-12)-EF,"maximum fold induction of luciferase reporter, two-hybrid gene switch in NIH3T3 cells (fold induction)",[1],1760
same,"maximum fold induction of luciferase reporter, two-hybrid gene switch in NIH3T3 cells (fold induction)",[2],11000
